Data as given in US20260102487A1 (Amgen, published 2026).

T1: IL-7R (Sino Biological) (UniProt P16871 21-239)
T1 sequence (looked up): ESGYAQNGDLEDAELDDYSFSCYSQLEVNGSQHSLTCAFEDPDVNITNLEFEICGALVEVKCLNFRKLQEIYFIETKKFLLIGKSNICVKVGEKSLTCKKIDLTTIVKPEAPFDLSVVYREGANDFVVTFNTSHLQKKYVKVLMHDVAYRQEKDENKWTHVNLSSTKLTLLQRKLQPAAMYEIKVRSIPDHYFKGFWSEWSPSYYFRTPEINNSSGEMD

T2: human IL-2Rα (Sino Biological) (human, UniProt P01589 22-213, limits assumed)
T2 construct: Bought recombinant protein; also called IL2RA; CD25
T2 sequence: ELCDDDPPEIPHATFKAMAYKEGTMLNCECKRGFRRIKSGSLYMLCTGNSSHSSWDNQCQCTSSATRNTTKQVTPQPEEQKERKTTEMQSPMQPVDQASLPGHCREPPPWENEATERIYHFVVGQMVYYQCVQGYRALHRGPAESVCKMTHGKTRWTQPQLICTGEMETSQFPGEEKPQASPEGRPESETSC

T3: IL-9R (R&D Systems) (UniProt Q01113 41-270, limits assumed)
T3 sequence (looked up): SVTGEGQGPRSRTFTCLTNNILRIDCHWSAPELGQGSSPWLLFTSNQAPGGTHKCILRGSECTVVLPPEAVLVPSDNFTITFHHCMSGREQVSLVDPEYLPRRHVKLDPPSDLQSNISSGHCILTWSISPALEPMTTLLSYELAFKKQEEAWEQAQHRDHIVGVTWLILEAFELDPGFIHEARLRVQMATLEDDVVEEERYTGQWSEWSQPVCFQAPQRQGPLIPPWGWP

T4: IL-4R (Sino Biological) (UniProt P24394 26-232)
T4 construct: also called IL-4Ra
T4 sequence (looked up): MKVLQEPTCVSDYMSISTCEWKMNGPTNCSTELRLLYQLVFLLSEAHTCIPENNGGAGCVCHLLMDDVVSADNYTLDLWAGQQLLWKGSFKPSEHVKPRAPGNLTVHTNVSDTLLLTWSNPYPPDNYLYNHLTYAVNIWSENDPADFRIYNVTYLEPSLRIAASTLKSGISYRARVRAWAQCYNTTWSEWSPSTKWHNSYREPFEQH


Columns and labels:
[1] = molecular target: T5, cynomolgus IL-2Rβγ receptor on cynomolgus T-cells (PBMCs) (cynomolgus); test: flow cytometry cell binding on cynomolgus CD8+ T-cells (PBMC), gMFI as fold over secondary antibody only
T5 construct: whole, on cells; Endogenous receptor on primary cynomolgus cells
Experimental: All washes and dilutions of cells, antibodies, and reagents were performed using flow buffer (1X PBS, 1% BSA, 0.1% NaN3, pH 7.4). Staining was performed in a round-bottom 96-well plate (Corning) seeded at 100,000 cells/well, and all incubations were performed at 4° C. or on ice. […] The cells were washed twice with 200 μL flow buffer. The cells were then incubated for 30 minutes with detection antibody (Goat F(ab′)2 Anti-Human IgG-PE, Southern Biotech) at 0.625 μg/mL in flow buffer. Following 2 more washes, the cells were resuspended in a final volume of 150 μL of flow buffer. The cells were analyzed on a BD FACSCelesta or a Guava easyCyte 8-HT flow cytometer. At least 3000 events were collected, and PE geometric mean fluorescence intensity was plotted as a fold over background (cells incubated with secondary detection antibody only). In some secondary screens involving human or cynomolgus PBMCs, an additional CD4 antibody (BioLegend) and/or CD8 antibody (BioLegend) was included to further characterize cell binding.

IL-7R (Sino Biological) = molecular target: T1, IL-7R (Sino Biological); test: Octet (BLI) off-rate, antibody captured on AHC sensors
Experimental: (§1) All off-rate measurements were performed on an Octet Qk384 instrument (ForteBio), in 96-well microplates at 25° C. using anti-human IgG Fc capture (AHC, 18-5005) sensors with a shake speed of 1000 rpm. For off-rate determination, the antibodies/antibody fragments were loaded on the AHC sensors at 5 μg/mL. Following a short baseline in kinetics buffer (0.02% Tween20, 0.1% BSA, 0.05% sodium azide, 1X PBS). Offrate measurements were done for the following: human IL-2Rβ (AcroBiosystems), human IL-2Ry (Sino Biological), cynomolgus IL-2RP (Sino Biological), cynomolgus IL-2Rγ (expressed and purified in house using ExpiCHO expression system followed by Ni-NTA His-tag purification), mouse IL-2Rγ (Sino Biological), mouse IL-2Rβ (Sino Biological), human IL-2Rα (Sino Biological), IL-4R (Sino Biological), IL-7R (Sino Biological), IL-9R (R&D Systems) and IL-21R (Sino Biological). The following antibodies were used as positive controls to verify target binding and reagent quality: anti-human IL-9R (R&D Systems), anti-human IL-21R (R&D Systems), anti-human IL-7R (R&D Systems) and anti-human IL-4Ra (R&D Systems). The loaded sensors were then submerged in wells containing antigen at 100 nM concentration for association step. Dissociation was monitored in kinetics buffer. The capture surfaces were regenerated for 60 s. ForteBio data analysis software was used to fit the data to a 1:1 binding model to extract an association rate and dissociation rate.

[2] = molecular target: T2, human IL-2Rα (Sino Biological); test: as above
Experimental: as §1

IL-9R (R&D Systems) = molecular target: T3, IL-9R (R&D Systems); test: as above
Experimental: as §1

IL-4R (Sino Biological) = molecular target: T4, IL-4R (Sino Biological); test: as above
Experimental: as §1

IL-21R (Sino Biological) = IL-21R (Sino Biological) (UniProt Q9HBE5 20-232); test: as above
Experimental: as §1

Sequence of IL-21R (Sino Biological) (Q9HBE5 20-232 limits assumed): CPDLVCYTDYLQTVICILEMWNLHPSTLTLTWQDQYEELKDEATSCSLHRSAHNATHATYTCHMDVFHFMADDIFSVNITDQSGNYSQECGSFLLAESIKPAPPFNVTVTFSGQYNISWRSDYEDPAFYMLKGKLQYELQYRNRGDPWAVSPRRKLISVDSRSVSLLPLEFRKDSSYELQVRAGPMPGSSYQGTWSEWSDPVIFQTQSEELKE

Row | EC50 (read off the curve) [1] [nM] | binding result (IL-7R (Sino Biological)) | binding result [2] | binding result (IL-9R (R&D Systems)) | binding result (IL-4R (Sino Biological)) | binding result (IL-21R (Sino Biological)) | Binder
1 | ~2 | no binding (tested: antigen at 100 nM) | no binding (tested: antigen at 100 nM) | no binding (tested: antigen at 100 nM) | no binding (tested: antigen at 100 nM) | no binding (tested: antigen at 100 nM) | BsAb-2 (IL2RB_F09G**IL2RG_F16B) (bispecific antibody, human IgG4, V domains shown, Heavy chain-only bispecific on silenced, stabilised human IgG4 Fc, knobs-into-holes, no light chains; not shown: C-terminal His-tag on the knob chain) V domain 1: QVQLQESGPGLVKSSETLSLTCTVSGGSISSSDWWSWVRQPPGKGLEWIGEIDHSGSTNYNPSLMSRVTISVDKSKNQFSLKLSSVTAADTAVYFCARGSWELTDAFDIRGQGTLVTVSS V domain 2: QVQLVESGGGLVKPGGSLRLSCAASGFTFSDYYMSWIRQAPGKGLEWVSYISSSGSTIYYADSVKGRFTISRDNAKNSLYLQMNSLRAEDTAVYYCARGDAVSITGDYRGQGTLVTVSS
2 | ~20 | no binding (tested: antigen at 100 nM) | no binding (tested: antigen at 100 nM) | no binding (tested: antigen at 100 nM) | no binding (tested: antigen at 100 nM) | no binding (tested: antigen at 100 nM) | BsAb-6 (IL2RB_F18E**IL2RG_F16A) (bispecific antibody, human IgG4, V domains shown, Heavy chain-only bispecific on silenced, stabilised human IgG4 Fc, knobs-into-holes, no light chains; not shown: C-terminal His-tag on the knob chain) V domain 1: QVQLVESGGGVVQPGRSLRLSCAASGFTFSSYGMHWVRQAPGKEREWVAVISYDGSNKYYTDSVKGRFTISRDNSKNTLYLEMNSLRAEDTAVYYCARDLDYDVLTGDPVGGFDIWGQGTLVTVSS V domain 2: QVQLVESGGGLVKPGGSLRLSCAASGFTFSDYYMSWIRQAPGKGLEWVSSISSSGDTIYYADSVQGRFTLSRDNAENSLFLQMNSLRAEDTAVYYCARGDAVSITGDYRGQGTLVTVSS
3 | ~10 | no binding (tested: antigen at 100 nM) | no binding (tested: antigen at 100 nM) | no binding (tested: antigen at 100 nM) | no binding (tested: antigen at 100 nM) | no binding (tested: antigen at 100 nM) | BsAb-4 (IL2RB_F09G**IL2RG_F18A) (bispecific antibody, human IgG4, V domains shown, Heavy chain-only bispecific on silenced, stabilised human IgG4 Fc, knobs-into-holes, no light chains; not shown: C-terminal His-tag on the knob chain) V domain 1: QVQLQESGPGLVKSSETLSLTCTVSGGSISSSDWWSWVRQPPGKGLEWIGEIDHSGSTNYNPSLMSRVTISVDKSKNQFSLKLSSVTAADTAVYFCARGSWELTDAFDIRGQGTLVTVSS V domain 2: QVQLVESGGDLVKPGGSLRLSCAASGFTFSDYYMSWLRQAPGKELEWVSHISSSGTTTYYADSVEGRFTITRDNAKNSLYLQMNSLRAEDTAVYYCARGAAVAPGFDSRGQGTLVTVSS
4 | ~4 | no binding (tested: antigen at 100 nM) | no binding (tested: antigen at 100 nM) | no binding (tested: antigen at 100 nM) | no binding (tested: antigen at 100 nM) | no binding (tested: antigen at 100 nM) | BsAb-5 (IL2RB_F09K**IL2RG_F16B) (bispecific antibody, human IgG4, V domains shown, Heavy chain-only bispecific on silenced, stabilised human IgG4 Fc, knobs-into-holes, no light chains; not shown: C-terminal His-tag on the knob chain) V domain 1: QVQLQESSPGLVKPSETLSLTCTVSGGSISSSNWWSWVRQPPGKGLEWIGEISHSGSTNYNPSLKSRVTISVDKSKNQFSLRLSSVTAADTAVYFCGRGSWELTDAFDIRGQGTLVTVSS V domain 2: QVQLVESGGGLVKPGGSLRLSCAASGFTFSDYYMSWIRQAPGKGLEWVSYISSSGSTIYYADSVKGRFTISRDNAKNSLYLQMNSLRAEDTAVYYCARGDAVSITGDYRGQGTLVTVSS
5 | ~20 | no binding (tested: antigen at 100 nM) | no binding (tested: antigen at 100 nM) | no binding (tested: antigen at 100 nM) | no binding (tested: antigen at 100 nM) | no binding (tested: antigen at 100 nM) | BsAb-1 (IL2RB_F09C**IL2RG_F16A) (bispecific antibody, human IgG4, V domains shown, Heavy chain-only bispecific on silenced, stabilised human IgG4 Fc, knobs-into-holes, no light chains; not shown: C-terminal His-tag on the knob chain) V domain 1: QVQLQESGPGLVKPSGTLSLTCAVSGGSISSSDWWSWVRQPPGKGLEWIGEIDHSGSTNYNPSLMSRVTISVDKSKNQFSLKLSSVTAADTAVYFCGRGSWELSDAFDIRGQGTLVTVSS V domain 2: QVQLVESGGGLVKPGGSLRLSCAASGFTFSDYYMSWIRQAPGKGLEWVSSISSSGDTIYYADSVQGRFTLSRDNAENSLFLQMNSLRAEDTAVYYCARGDAVSITGDYRGQGTLVTVSS
6 | ~10 | no binding (tested: antigen at 100 nM) | no binding (tested: antigen at 100 nM) | no binding (tested: antigen at 100 nM) | no binding (tested: antigen at 100 nM) | no binding (tested: antigen at 100 nM) | BsAb-3 (IL2RB_F09G**IL2RG_F16C) (bispecific antibody, human IgG4, V domains shown, Heavy chain-only bispecific on silenced, stabilised human IgG4 Fc, knobs-into-holes, no light chains; not shown: C-terminal His-tag on the knob chain) V domain 1: QVQLQESGPGLVKSSETLSLTCTVSGGSISSSDWWSWVRQPPGKGLEWIGEIDHSGSTNYNPSLMSRVTISVDKSKNQFSLKLSSVTAADTAVYFCARGSWELTDAFDIRGQGTLVTVSS V domain 2: QVQLVESGGGLVKPGGSLRLSCAASGFTFNDYYMSWIRQAPGKGLEWVSHISSSGSTIYYADSVKGRFTVSRDNANNSLYLQMHSLRAEDTAVYYCARGDAVSITGDYRGQGTLVTVSS
